Test results reported in patent US20020164304A1 (TRANSGENE, published 2002).

Target: T1, human α1-antitrypsin (human, UniProt P01009 25-418)
T1 construct: Secreted recombinant human α1AT found in culture supernatant; also called α1AT; human α1AT
Assay: supernatant incubated with active NE (3, 30, 300 nM; 30 min, 23°), then immunoprecipitation, SDS-PAGE and autoradiography
Description: (B) At various times after infection, the lungs were minced, incubated for 1 hour in methionine-free LHC-8 medium (37°), and then incubated for 24 hours in medium with (³⁵S)-methionine (1 ml medium/150 mg tissue; 500 μCi/ml). The supernatant was then evaluated by immunoprecipitation with a rabbit antibody to human α1AT (Boehringer Mannheim), SDS-polyacrylamide gels, and autoradiography as in FIG. 2E. Trichloroacetic acid-precipitable radioactivity was evaluated by immunoprecipitation (for lanes 10-15, 2×10⁶ cpm; for lanes 16-18, 1×10⁶ cpm). Autoradiogram exposures for lanes 10 to 15 were identical; lanes 16-18 were evaluated at a different time, and the exposures adjusted such that the intensity of the α1AT band without NE was similar to lane 13. The ability of the synthesized human α1AT to inhibit its natural substrate, NE, was evaluated by incubating the supernatant with various dilutions of active NE (30 min, 23°) before immmunoprecipitation.
The de novo expression of the human α1AT protein lasted at least 1 week (lane 15) and the secreted human α1AT was functional, as shown by its ability to form a complex with its natural target, human neutrophil elastase (NE) (lanes 16-18).

T1 sequence (P01009 25-418 limits assumed): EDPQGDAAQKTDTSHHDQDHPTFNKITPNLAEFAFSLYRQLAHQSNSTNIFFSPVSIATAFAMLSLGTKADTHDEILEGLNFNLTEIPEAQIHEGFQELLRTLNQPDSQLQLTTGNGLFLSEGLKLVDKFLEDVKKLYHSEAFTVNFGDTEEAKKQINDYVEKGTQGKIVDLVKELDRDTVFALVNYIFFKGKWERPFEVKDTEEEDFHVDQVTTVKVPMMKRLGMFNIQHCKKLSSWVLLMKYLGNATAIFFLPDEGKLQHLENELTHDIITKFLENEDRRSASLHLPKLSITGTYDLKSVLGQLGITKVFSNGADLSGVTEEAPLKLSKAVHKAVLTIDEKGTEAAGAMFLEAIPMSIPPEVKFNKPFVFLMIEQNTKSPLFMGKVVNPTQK

B1: human neutrophil elastase (enzyme, UniProt P08246 30-247, looked up)
chain: IVGGRRARPHAWPFMVSLQLRGGHFCGATLIAPNFVMSAAHCVANVNVRAVRVVLGAHNLSRREPTRQVFAVQRIFENGYDPVNLLNDIVILQLNGSATINANVQVAQLPAQGRRLGNGVQCLAMGWGLLGRNRGIASVLQELNVTVVTSLCRRSNVCTLVRGRQAGVCFGDSGSPLVCNGLIHGIASFVRGGCASGLYPDAFAPVAQFVNWIDSIIQ
notes: Described as active NE
Does B1 bind?
Result: binds
